Measured values as given in publication PMC10917784.

Biological target: Trastuzumab
Assay: SPR; antibody constructs immobilised on a Protein L Series S CM5 chip, increasing concentrations of Fc receptor flushed; Biacore 8K+, 25 °C, neutral pH; steady state affinity model
Conditions: remark: other sources report otherwise

- Kd: 543 nM
B1: human FcγRIIa ECD, P12318 34-217 (receptor)
chain: QAAAPPKAVLKLEPPWINVLQEDSVTLTCQGARSPESDSIQWFHNGNLIPTHTQPSYRFKANNNDSGEYTCQTGQTSLSDPVHLTVLSEWLVLQTPHLEFQEGETIMLRCHSWKDKPLVKVTFFQNGKSQKFSHLDPTFSIPQANHSHSGDYHCTGNIGYTLFSSKPVTITVQVPSMGSSSPMG
